According to the supplement of paper PMC7877785:
± gives the uncertainty stated by the source.

Experiment: self-splicing fitness, log relative to wild type (ln ratio); higher = more splicing; Tetrahymena group I intron in knt gene, E. coli kanamycin selection, DiMSum; sequences stand for … in CUCUCU…GGAGGGAAAAGUUAUCAGGCAUGCACCUGGUAGCUAGUCUUUAAACCAAUAGAUUGCAUCGGUUUAAAAGGCAAGACCGUCAAAUUGCGGGAAAGGGGUCAACAGCCGUUCAGUACCAAGUCUCAGGGGAAACUUUGAGAUGGCCUUGCAAAGGGUAUGGUAAUAAGCUGACGGACAUGGUCCUAACCACGCAGCCAAGUCCUAAGUCAACAGAUCUUCUGUUGAUAUGGAUGCAGUUCACAGACUAAAUGUCGGUCGGGGAAGAUGUAUUCUUCUCAUAAGAUAUAGUCGGACCUCUCCUUAAUGGGAGCUAGCGGAUGAAGUGAUGCAACACUGGAGCCGCUGGGAACUAAUUUGUAUGCGAAAGUAUAUUGAUUAGUUUUGGAGUACUCGUGGUCG
In short: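 Pooled colonies went to amplicon sequencing on an Illumina HiSeq 2500 after six replicate transformations. The plates were LB agar with 100 μg/mL carbenicillin, 50 μM IPTG and 0.2% rhamnose, with or without 25 μg/mL kanamycin, incubated overnight at 37°C or 30°C. The E. coli BL21(DE3) library had all eight P1ex-region intron nucleotides randomised, the intron placed in the knt kanamycin-resistance gene on pET-22b(+). DiMSum fitness is the error-weighted combination of replicate fold changes, kanamycin against none, normalised to wild type.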

Sequence | self-splicing fitness (ln) (30 °C) | self-splicing fitness (ln) (37 °C)
GACCAGCAAUAUUACGUCGC | -1.89 ± 0.1 | -0.411 ± 0.13
GACCAGCAAUAUUACGUGGG | -3.64 ± 0.12 | -2.47 ± 0.12
GACCAGCAAUAUUACGUUCC | -2.31 ± 0.26 | -1.76 ± 0.28
GACCAGCAAUAUUACGUUUG | -2.55 ± 0.073 | -1.42 ± 0.081
GACGAGCAAUAUUACGAAAU | -2.5 ± 0.23 | –
GACGAGCAAUAUUACGAAUC | – | -2.14 ± 0.4
GACGAGCAAUAUUACGAGAU | -2.23 ± 0.3 | –
GACGAGCAAUAUUACGAGCC | -2.73 ± 0.33 | –
GACGAGCAAUAUUACGAUGU | -3.94 ± 0.26 | -1.38 ± 0.14
GACGAGCAAUAUUACGCCCU | -2.99 ± 0.25 | -1.47 ± 0.19
GACGAGCAAUAUUACGCGUU | -3.74 ± 0.23 | -2.88 ± 0.25
GACGAGCAAUAUUACGCUUA | -2.29 ± 0.15 | -1.13 ± 0.14
GACGAGCAAUAUUACGGGAA | -3.41 ± 0.31 | -2.34 ± 0.19
GACGAGCAAUAUUACGGGUC | -3.77 ± 0.21 | -3.28 ± 0.25
GACGAGCAAUAUUACGUAGA | -2.81 ± 0.26 | -1.98 ± 0.22
GACGAGCAAUAUUACGUAGU | -2.9 ± 0.26 | -1.88 ± 0.3
GACGAGCAAUAUUACGUCAG | – | -1.66 ± 0.23
GACGAGCAAUAUUACGUCGU | -3.59 ± 0.24 | -2.34 ± 0.23
GACGAGCAAUAUUACGUCUC | -3.48 ± 0.36 | -1.23 ± 0.28
GACGAGCAAUAUUACGUCUU | -2.63 ± 0.21 | -1.01 ± 0.17

Sequence | self-splicing fitness (ln) (30 °C) | self-splicing fitness (ln) (37 °C)
GACGAGCAAUAUUACGUGGA | -4 ± 0.21 | -2.92 ± 0.21
GACGAGCAAUAUUACGUGGG | -4.32 ± 0.36 | -3.12 ± 0.2
GACUAGCAAUAUUACGAAGU | -3.08 ± 0.17 | -1.82 ± 0.22
GACUAGCAAUAUUACGAAUU | -1.35 ± 0.092 | -0.277 ± 0.11
GACUAGCAAUAUUACGACAG | -2.92 ± 0.14 | -2.4 ± 0.2
GACUAGCAAUAUUACGACUG | -1.64 ± 0.1 | 0.0415 ± 0.13
GACUAGCAAUAUUACGAGAG | -3.75 ± 0.18 | -2.28 ± 0.14
GACUAGCAAUAUUACGAGUC | – | -2.36 ± 0.39
GACUAGCAAUAUUACGAUCA | -0.805 ± 0.062 | -0.314 ± 0.077
GACUAGCAAUAUUACGAUGC | -0.221 ± 0.062 | 0.0502 ± 0.082
GACUAGCAAUAUUACGCACC | -0.905 ± 0.18 | 0.000851 ± 0.28
GACUAGCAAUAUUACGCAGA | -2.34 ± 0.16 | -1.62 ± 0.17
GACUAGCAAUAUUACGCCUA | -0.114 ± 0.18 | -0.547 ± 0.15
GACUAGCAAUAUUACGCGAA | -1.83 ± 0.18 | -0.638 ± 0.17
GACUAGCAAUAUUACGCGAG | -2.49 ± 0.21 | -1.28 ± 0.15
GACUAGCAAUAUUACGCGGU | -3.62 ± 0.17 | -3.27 ± 0.28
GACUAGCAAUAUUACGCGUG | -1.44 ± 0.061 | -0.609 ± 0.067
GACUAGCAAUAUUACGCUUA | -0.282 ± 0.17 | -0.7 ± 0.14
GACUAGCAAUAUUACGGACG | -1.4 ± 0.21 | -1.85 ± 0.13
GACUAGCAAUAUUACGGAGC | -1.58 ± 0.16 | -2.19 ± 0.2
